Measured values: publication PMC5094776, “The miR165/166 Mediated Regulatory Module Plays Critical Roles in ABA Homeostasis and Response in Arabidopsis thaliana”

T1: GST-PHB (PHABULOSA, HD-ZIPIII) (Arabidopsis thaliana, UniProt O04291 1-852)
T1 sequence: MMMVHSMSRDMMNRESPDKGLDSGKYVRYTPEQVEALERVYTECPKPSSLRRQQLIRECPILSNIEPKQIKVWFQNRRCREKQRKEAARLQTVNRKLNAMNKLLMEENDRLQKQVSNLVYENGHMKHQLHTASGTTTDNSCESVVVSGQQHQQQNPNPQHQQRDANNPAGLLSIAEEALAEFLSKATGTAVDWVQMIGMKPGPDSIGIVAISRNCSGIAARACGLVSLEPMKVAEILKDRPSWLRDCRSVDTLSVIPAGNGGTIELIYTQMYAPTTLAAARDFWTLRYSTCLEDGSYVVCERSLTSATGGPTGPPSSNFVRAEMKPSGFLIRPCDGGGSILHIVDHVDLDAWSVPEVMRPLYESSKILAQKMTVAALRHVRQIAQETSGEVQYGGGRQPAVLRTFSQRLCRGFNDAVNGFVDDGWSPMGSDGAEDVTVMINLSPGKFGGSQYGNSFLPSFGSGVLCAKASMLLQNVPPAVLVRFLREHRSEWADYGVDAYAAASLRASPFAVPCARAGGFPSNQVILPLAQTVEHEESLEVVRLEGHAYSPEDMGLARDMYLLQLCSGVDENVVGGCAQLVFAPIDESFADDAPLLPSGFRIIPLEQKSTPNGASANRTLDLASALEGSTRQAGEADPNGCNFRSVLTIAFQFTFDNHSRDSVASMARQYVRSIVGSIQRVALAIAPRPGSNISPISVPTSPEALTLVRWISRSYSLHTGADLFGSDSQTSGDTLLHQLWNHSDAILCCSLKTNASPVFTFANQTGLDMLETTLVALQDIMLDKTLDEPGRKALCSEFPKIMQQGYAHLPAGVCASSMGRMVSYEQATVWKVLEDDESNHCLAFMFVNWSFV


Biological target: T1, GST-PHB (PHABULOSA, HD-ZIPIII)
Test: EMSA; unlabeled self-competitor at 10x and 100x also tested (gel only); 20 mM Tris-HCl pH 7.5, 300 mM NaCl, 5 mM MgCl2, 0.1% NP-40, 0.5 mM DTT, 20-60 min, room temperature; 6% PAGE in Tris-glycine
Settings: protein: recombinant; tags: GST (N-terminal, pGEX4T-1); chain copies: 2; label: 32P; blunt

Row | Binder | binding result
1 | BG1 binding motif probe (dsDNA) DNA 1: AGAAGTTTTGGTAATGATACTGAAACACATTTC DNA 2: GAAATGTGTTTCAGTATCATTACCAAAACTTCT | binds
2 | ABI4 binding motif probe (dsDNA) DNA 1: TTAGCCGTTATGTAATGATTTATTCTAGTTTCA DNA 2: TGAAACTAGAATAAATCATTACATAACGGCTAA | binds
